According to US20210246224A1 (Regeneron, published 2021):
Blank lines part the entries; values can stand above or below the binder they belong to.

Experiments:
[1] = target: T1, human HER2 expressed on cells (cancer cell lines and normal primary cultures) (human, UniProt P04626 23-1255); experiment: imaging, Alexa647-labelled antibody 10 ug/mL at 4 C on T47D cells; signal per nuclei, normalised to the highest cell line
T1 construct: Endogenous HER2 of the cell lines; the same cells also express APLP2; also called human epidermal growth factor receptor 2
Protocol: (§1) After, cells were washed twice with cold DMEM+10% FBS. […] After, the solution was replaced with DPBS/CM. Binding of the bispecific antibodies to each of the cell types was measured using an Image Xpress^Micro automatic microscope (Molecular Devices). […] (See also FIG. 2.)
(§2) The signal of antibody binding (mean intensity fluorescence of Alexa647) divided by the nuclei signals was determined for each condition using MetaXpress software (Molecular Devices). Values were normalized to the cell line displaying the highest antibody binding signal.

[2] = target: T1, human HER2 expressed on cells (cancer …); experiment: imaging, Alexa647-labelled antibody 10 ug/mL at 4 C on JIMT-1 cells; signal per nuclei, normalised to the highest cell line
Protocol: as §1, §2

[3] = target: T1, human HER2 expressed on cells (cancer …); experiment: imaging, Alexa647-labelled antibody 10 ug/mL at 4 C on MDA-MB-361 cells; signal per nuclei, normalised to the highest cell line
Protocol: as §1, §2

[4] = target: T2, human APLP2 extracellular domain expressed with a C-terminal myc-myc-hexahistidine tag (human, UniProt Q06481 32-692); experiment: SPR (Biacore 4000), antibody captured on anti-human Fc, hAPLP2-MMH injected, 37 C
T2 construct: also called hAPLP2-MMH; APLP2.mmh
T2 sequence (Q06481 other isoform, or with tags, fused parts or gaps): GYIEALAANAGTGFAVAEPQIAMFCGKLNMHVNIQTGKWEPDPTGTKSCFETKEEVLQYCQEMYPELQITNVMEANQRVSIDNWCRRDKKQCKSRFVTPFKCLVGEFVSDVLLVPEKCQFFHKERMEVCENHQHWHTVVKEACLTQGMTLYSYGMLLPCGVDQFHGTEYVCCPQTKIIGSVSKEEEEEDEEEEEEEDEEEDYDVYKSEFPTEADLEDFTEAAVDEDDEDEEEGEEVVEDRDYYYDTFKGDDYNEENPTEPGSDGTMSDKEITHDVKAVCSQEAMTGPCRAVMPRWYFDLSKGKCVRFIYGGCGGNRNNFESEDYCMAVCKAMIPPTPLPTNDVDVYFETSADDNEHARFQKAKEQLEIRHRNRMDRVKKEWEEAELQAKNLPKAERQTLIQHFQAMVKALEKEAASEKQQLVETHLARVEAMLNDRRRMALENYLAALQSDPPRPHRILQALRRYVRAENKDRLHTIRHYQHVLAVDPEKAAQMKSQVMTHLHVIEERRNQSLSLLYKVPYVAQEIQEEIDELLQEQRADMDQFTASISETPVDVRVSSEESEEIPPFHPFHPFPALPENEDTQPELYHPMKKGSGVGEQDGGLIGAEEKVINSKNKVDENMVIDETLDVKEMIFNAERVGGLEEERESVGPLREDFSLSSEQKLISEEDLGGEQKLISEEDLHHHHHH
Protocol: (§3) Equilibrium dissociation constants (KD values) for HER2 and APLP2 binding to purified anti-HER2xAPLP2 bispecific and parental antibodies were determined using a real-time surface plasmon resonance biosensor using a Biacore 4000 instrument. The Biacore sensor surface was first derivatized by amine coupling with a monoclonal mouse anti-human Fc antibody (GE, Cat #BR-1008-39) to capture anti-HER2xAPLP2 bispecific monoclonal antibodies. […] Kinetic association rate constant (ka) and dissociation rate constant (kd) were determined by fitting the real-time sensorgrams to a 1:1 binding model using Scrubber 2.0c curve fitting software. Binding dissociation equilibrium constants (KD) and dissociative half-lives (t1/2) were calculated from the kinetic rate constants as: […]

[5] = target: T1, human HER2 expressed on cells (cancer …); experiment: imaging, Alexa647-labelled antibody 10 ug/mL at 4 C on MCF7 cells; signal per nuclei, normalised to the highest cell line
Protocol: as §1, §2

[6] = target: T3, human HER2 extracellular domain expressed with a C-terminal myc-myc-hexahistidine tag (human, UniProt P04626 23-652); experiment: SPR (Biacore 4000), antibody captured on anti-human Fc, hHER2-MMH injected, 37 C
T3 construct: also called hHER2-MMH; HER2.mmh
Protocol: as §3

[7] = target: T1, human HER2 expressed on cells (cancer …); experiment: imaging, Alexa647-labelled antibody 10 ug/mL at 4 C on SKBR3 cells; signal per nuclei, normalised to the highest cell line
Protocol: (§4) To test the ability of bispecific anti-HER2xAPLP2 molecules described herein to bind to cells lines expressing various levels of HER2, a high content imaging assay was performed. […] Cells were plated on collagen-coated, black wall, 96-well, optical plates (Greiner, Cat #655936) at 2.5×10⁵ cells per well in their appropriate culture media, which is described for each cell line/culture in Table 6, and incubated overnight at 37° C. in 5% CO₂.
as §1, §2

[8] = target: T1, human HER2 expressed on cells (cancer …); experiment: imaging, Alexa647-labelled antibody on MDA-MB-361 cells at 4 C; competitor hHER2-MMH
Protocol: (§5) For the assay, cells were plated on collagen-coated, black wall, 96-well, optical plates (Greiner, Cat #655936) at 2.5×10⁵ cells per well in their appropriate culture media (described in previous examples), and incubated overnight at 37° C. in 5% CO₂. The next day, the cells were placed in refrigeration at 4° C. for 30 minutes. […] To each antibody solution, either PBS alone, human HER2 extracellular domain expressed with a C-terminal myc-myc-hexahistidine tag (hHER2-MMH; SEQ ID NO: 53) alone, human APLP2 extracellular domain expressed with a C-terminal myc-myc-hexahistidine tag (hAPLP2-MMH; SEQ ID NO: 54) alone, or the combination of hHER2-MMH and hAPLP2-MMH was added at a concentration of […]. After incubation, and removal of culture media, 50 μL/well of the bispecific antibody and soluble protein solutions were added to the cells for 30 minutes at 4° C. The cells were subsequently washed with 150 μL/well of DMEM containing 10% FBS at 4° C. for 10 minutes. […] The fixing buffer was then removed, 100 uL of DPBS/CM was added and allowed to incubate for approximately 20 minutes at room temperature prior to image acquisition. Binding of the bispecific antibodies to each of the cell types was measured using an Image Xpress^Micro automatic microscope (Molecular Devices). Data acquired was analyzed using MetaXpress software (Molecular Devices). […]

[9] = target: T1, human HER2 expressed on cells (cancer …); experiment: imaging, Alexa647-labelled antibody on MDA-MB-361 cells at 4 C; No Block
Protocol: as §5

[10] = target: T1, human HER2 expressed on cells (cancer …); experiment: imaging, Alexa647-labelled antibody on MDA-MB-361 cells at 4 C; competitors hHER2-MMH + hAPLP2-MMH
Protocol: as §5

[11] = target: T1, human HER2 expressed on cells (cancer …); experiment: imaging, Alexa647-labelled antibody 10 ug/mL at 4 C on NBE cells; signal per nuclei, normalised to the highest cell line
Protocol: as §1, §2

[12] = target: T1, human HER2 expressed on cells (cancer …); experiment: imaging, Alexa647-labelled antibody 10 ug/mL at 4 C on MDA-MB-453 cells; signal per nuclei, normalised to the highest cell line
Protocol: as §1, §2

[13] = target: T1, human HER2 expressed on cells (cancer …); experiment: imaging, Alexa647-labelled antibody 10 ug/mL at 4 C on MDA-MB-468 cells; signal per nuclei, normalised to the highest cell line
Protocol: as §1, §2

[14] = target: T2, human APLP2 extracellular domain …; experiment: SPR, antibody captured, hAPLP2-MMH injected, 25 C
[15] = target: T1, human HER2 expressed on cells (cancer …); experiment: imaging, Alexa647-labelled antibody 10 ug/mL at 4 C on NLE cells; signal per nuclei, normalised to the highest cell line
Protocol: as §1, §2

[16] = target: T1, human HER2 expressed on cells (cancer …); experiment: imaging, Alexa647-labelled antibody 10 ug/mL at 4 C on BT483 cells; signal per nuclei, normalised to the highest cell line
Protocol: as §4, §1, §2

[17] = target: T1, human HER2 expressed on cells (cancer …); experiment: imaging, Alexa647-labelled antibody on MDA-MB-361 cells at 4 C; competitor hAPLP2-MMH
Protocol: as §5

[18] = target: T2, human APLP2 extracellular domain …; experiment: SPR, antibody captured, hAPLP2-MMH injected, 25 C (second row for this antibody)

Antibody bound (% of highest) [1]: 7% | Antibody bound (% of highest) [2]: 17% | Antibody bound (% of highest) [3]: 35% | 100 nM hAPLP2-MMH Bound (RU) [4]: 13 RU | Kd [4]: 281 nM | koff [4]: 0.00977 s⁻¹ | kon [4]: 34700 M⁻¹ s⁻¹ | t½ [4]: 1.2 min | Antibody bound (% of highest) [5]: 9% | Kd [6]: 4.85 nM | koff [6]: 0.0009 s⁻¹ | kon [6]: 186000 M⁻¹ s⁻¹ | t½ [6]: 13 min | Antibody bound (% of highest) [7]: 100% | Bispecific antibody signal (Fold over blank) [8]: 3 fold over blank | Bispecific antibody signal (Fold over blank) [9]: 14 fold over blank | Bispecific antibody signal (Fold over blank) [10]: 5 fold over blank | Antibody bound (% of highest) [11]: 10% | Antibody bound (% of highest) [12]: 31% | Antibody bound (% of highest) [13]: 1% | 90 nM hAPLP2-MMH Bound (RU) [14]: 13.4 RU | Kd [14]: 8.5 nM | koff [14]: 0.000782 s⁻¹ | kon [14]: 92000 M⁻¹ s⁻¹ | t½ [14]: 14.8 min | Antibody bound (% of highest) [15]: 4% | Antibody bound (% of highest) [16]: 22% | Bispecific antibody signal (Fold over blank) [17]: 13 fold over blank
B1: H4H25017D (bispecific antibody, IgG4, V domains shown)
VH 1: QVQLVQSGPEVKKPGASVKVSCKASGYTFPNFGISWVRQAPGQGLEWMGWIAPYNVATNYAPKLQGRVTMTTDTSTSTAYMELRSLRSDDTAVYYCARWGAGYMGYYYYGMDVWGQGTTVTVSS
VH 2: EVQLVESGGGLVQPGGSLRLSCAASGFTFSTYVMSWVRQAPGKGPEWVSGISGRTGTTYYADSVKGRFTISRDNSKNTLYLQMNSLRAEDTAVYYCASRITAAGRGYYYYYGMDVWGRGTTVTVSS
VL: not shown
notes: Wild-type kappa CL and a modified (chimeric) IgG4 CH domain as set forth in US20140243504A1; also called bispecific anti-HER2xAPLP2 antibody

Antibody bound (% of highest) [1]: 9% | Antibody bound (% of highest) [2]: 15% | Antibody bound (% of highest) [3]: 32% | 100 nM hAPLP2-MMH Bound (RU) [4]: 48 RU | Kd [4]: 183 nM | t½ [4]: 1.1 min | Antibody bound (% of highest) [5]: 7% | t½ [6]: 11 min | Antibody bound (% of highest) [7]: 100% | Antibody bound (% of highest) [11]: 6% | Antibody bound (% of highest) [12]: 30% | Antibody bound (% of highest) [13]: 1% | 90 nM hAPLP2-MMH Bound (RU) [14]: 30.6 RU | Kd [14]: 14.6 nM | t½ [14]: 8.7 min | Antibody bound (% of highest) [15]: 2% | Antibody bound (% of highest) [16]: 22% | Kd [18]: 17.2 nM | t½ [18]: 6.7 min
B2: H4H25019D (bispecific antibody, IgG4, V domains shown)
VH 1: B1 VH 1
VH 2: EVQLVESGGGLVQPGRSLRLSCVASGFTFADYAMHWVRQAPGKGLEWVSGISWNSGNIDYADSVKGRFTISRDNAKNSLYLQMNSLRTEDTALYYCAKVRIVVAGYYYYYYGMDVWGQGTTVTVSS
VL: not shown
notes: as for B1

Antibody bound (% of highest) [1]: 5% | Antibody bound (% of highest) [2]: 17% | Antibody bound (% of highest) [3]: 30% | 100 nM hAPLP2-MMH Bound (RU) [4]: 49 RU | Kd [4]: 145 nM | t½ [4]: 1.2 min | Antibody bound (% of highest) [5]: 6% | Kd [6]: 4.21 nM | Antibody bound (% of highest) [7]: 100% | Antibody bound (% of highest) [11]: 9% | Antibody bound (% of highest) [12]: 25% | Antibody bound (% of highest) [13]: 1% | 90 nM hAPLP2-MMH Bound (RU) [14]: 30.2 RU | Kd [14]: 15.6 nM | t½ [14]: 6.8 min | Antibody bound (% of highest) [15]: 3% | Antibody bound (% of highest) [16]: 16% | Kd [18]: 16.6 nM | t½ [18]: 7.7 min
B3: H4H25018D (bispecific antibody, IgG4, V domains shown)
VH 1: QVQLQESGPGLVKPSQTLSLTCTVSGGSISSGHYFWSWIRQHPGKGLEWIGYIFYSGSTHYNPSLKSRLSISVDTSKNQFSLRLTSVTAADTAVYYCAREEGDYNFWDVDYVPGHFDYWGQGTLVTVSS
VH 2: B2 VH 2
VL: not shown
notes: as for B1

Antibody bound (% of highest) [1]: 5% | Antibody bound (% of highest) [2]: 18% | Antibody bound (% of highest) [3]: 27% | 100 nM hAPLP2-MMH Bound (RU) [4]: 30 RU | Kd [4]: 844 nM | t½ [4]: 0.03 min | Antibody bound (% of highest) [5]: 5% | Kd [6]: 4.2 nM | Antibody bound (% of highest) [7]: 100% | Antibody bound (% of highest) [11]: 8% | Antibody bound (% of highest) [12]: 24% | Antibody bound (% of highest) [13]: 1% | Antibody bound (% of highest) [15]: 6% | Antibody bound (% of highest) [16]: 15%
B4: H4H25020D (bispecific antibody, IgG4, V domains shown)
VH 1: B3 VH 1
VH 2: QVQLVQSGVEVKKPGASVKVSCKASGYTFTDYGISWVRQAPGQGLEWMGWISAHNGNTNYAQKLQGRVTMTTDTSTNTAYMELRSLRSDDTAVYYCARRNWKYFDYWGQGTLVTVSS
VL: not shown
notes: as for B1
